Here are results for 10 molecules from publication PMC7755903 (Nature Communications, 2020).

Values joined by “and” are separate entries in the source; they are usually repeats but may differ in a detail not shown here. Equal values may be shown once.

For assay [1], the target named is T1, human βI-tryptase monomer (Homo sapiens, UniProt Q15661).
T1 construct: mature human βI-tryptase, Ile31-Pro275 of Uniprot Q15661 (Ile16-Pro246 in chymotrypsinogen numbering); The monomer used in SPR and HDX-MS; also called monomeric βI-tryptase; monomeric β-tryptase
The experiment in a line: SPR; Biacore T200; E104 IgG variants captured on immobilised mouse anti-human IgG (Fc) antibody on CM5 chips; threefold dilutions of human βI-tryptase monomer injected at 30 µL/min, 25 °C; 1:1 Langmuir model; n = 2. Particulars: both partners purified.
T1 sequence (Q15661 31-275): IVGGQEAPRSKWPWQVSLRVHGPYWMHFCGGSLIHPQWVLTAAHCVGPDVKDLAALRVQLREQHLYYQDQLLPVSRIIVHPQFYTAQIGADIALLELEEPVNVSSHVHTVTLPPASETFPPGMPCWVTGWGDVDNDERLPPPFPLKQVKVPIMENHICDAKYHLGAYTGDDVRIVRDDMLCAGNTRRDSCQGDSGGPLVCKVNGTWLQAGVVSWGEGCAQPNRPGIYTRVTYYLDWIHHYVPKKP

For assay [2], the target named is T2, human βI-tryptase monomer (Homo sapiens, UniProt Q15661).
T2 construct: mature wild-type human βI-tryptase, Uniprot Q15661, Ile31-Pro275 (Ile16-Pro246 in chymotrypsinogen numbering); The SPR methods say only 'human βI-tryptase monomer'; The methods describe the monomeric form as the zymogen, which still carries the N-terminal His6 tag and enterokinase site before Ile16; also called monomeric βI-tryptase; β-tryptase; source: Trichoplusia ni cells (baculovirus, …)
The assay can be described thus: SPR; Biacore T200; antibody captured on a CM5 chip by immobilised mouse anti-human IgG (Fc); threefold dilutions of βI-tryptase monomer injected at 30 µL/min, 25 °C, 3-min association, 10-min dissociation; 1:1 Langmuir fit; n = 2. The conditions noted are these: both partners purified.
T2 sequence (Q15661 31-275): as above

B1: humanized E104.v2 IgG1 (antibody, V domains shown)
VH: EVQLVESGPGLVKPSETLSLTCTVSRFSLIGYAITWIRQPPGKGLEWIGGISSAATTFYSSWAKSRVTISRDTSKNQVSLKLSSVTAADTAVYYCARDPRGYGAALDRLDLWGQGTLVTVSS
VL: DIQMTQSPSSLSASVGDRVTITCQSIKSVYNNRLGWYQQKPGKAPKLLIYETSILTSGVPSRFSGSGSGTDFTLTISSLQPEDFATYYCAGGFDRSGDTTFGQGTKVEIK
notes: variable domain of the heavy chain as in m6 (PDB 6VVU, Fab heavy chain) with V71R and F78V (Kabat numbering); human IgG1 heavy chain constant region; as the light chain of m6 (PDB 6VVU, Fab light chain); IgG1; also called IgG1.v2; WT IgG1 hinge; source: 293 cells, transient transfection, purified (MabSelect SuRe, SEC); copies: 2 + 2
B1: in assay [1], binding was characterised by a dissociation constant (Kd) of 0.6 ± 0.01 nM.

B2: E104.v2 IgG1 hinge variant G1.CC (antibody, V domains shown)
VH: EVQLVESGPGLVKPSETLSLTCTVSRFSLIGYAITWIRQPPGKGLEWIGGISSAATTFYSSWAKSRVTISRDTSKNQVSLKLSSVTAADTAVYYCARDPRGYGAALDRLDLWGQGTLVTVSS
VL: DIQMTQSPSSLSASVGDRVTITCQSIKSVYNNRLGWYQQKPGKAPKLLIYETSILTSGVPSRFSGSGSGTDFTLTISSLQPEDFATYYCAGGFDRSGDTTFGQGTKVEIK
notes: variable domain of the heavy chain as in m6 (PDB 6VVU, Fab heavy chain) with V71R and F78V (Kabat numbering); human IgG1 heavy chain constant region before the upper hinge (CH1); upper hinge of the variant; human IgG1 heavy chain constant region after the upper hinge (core hinge from C226, CH2, CH3); as the light chain of m6 (PDB 6VVU, Fab light chain); IgG1 with two added cysteines in the upper …
For the molecule B2, the Kd in assay [1] worked out at 0.4 ± 0.03 nM.

B3: E104.v2 IgG1 hinge variant G1 + GG (antibody, V domains shown)
VH: EVQLVESGPGLVKPSETLSLTCTVSRFSLIGYAITWIRQPPGKGLEWIGGISSAATTFYSSWAKSRVTISRDTSKNQVSLKLSSVTAADTAVYYCARDPRGYGAALDRLDLWGQGTLVTVSS
VL: DIQMTQSPSSLSASVGDRVTITCQSIKSVYNNRLGWYQQKPGKAPKLLIYETSILTSGVPSRFSGSGSGTDFTLTISSLQPEDFATYYCAGGFDRSGDTTFGQGTKVEIK
notes: variable domain of the heavy chain as in m6 (PDB 6VVU, Fab heavy chain) with V71R and F78V (Kabat numbering); human IgG1 heavy chain constant region before the upper hinge (CH1); upper hinge of the variant; human IgG1 heavy chain constant region after the upper hinge (core hinge from C226, CH2, CH3); as the light chain of m6 (PDB 6VVU, Fab light chain); IgG1 with an extended upper hinge; source: …
In assay [1], B3 returned a Kd of 0.4 ± 0.02 nM.

B4: humanized E104.v1 IgG1 (antibody, V domains shown)
VH: EVQLVESGPGLVKPSETLSLTCTVSRFSLIGYAITWIRQPPGKGLEWIGGISSAATTFYSSWAKSRVTISVDTSKNQFSLKLSSVTAADTAVYYCARDPRGYGAALDRLDLWGQGTLVTVSS
VL: DIQMTQSPSSLSASVGDRVTITCQSIKSVYNNRLGWYQQKPGKAPKLLIYETSILTSGVPSRFSGSGSGTDFTLTISSLQPEDFATYYCAGGFDRSGDTTFGQGTKVEIK
notes: humanized E104.v1 VH (rabbit E104 CDRs on the human VHIV consensus framework); Kabat numbering; human IgG1 heavy chain constant region, the CH1 domain up to the upper hinge; upper hinge of human IgG1, wild type; human IgG1 heavy chain constant region after the upper hinge (core and lower hinge, CH2, CH3); humanized E104 light chain (rabbit E104 CDRs on the human VLKI consensus framework); IgG1; …
As for B4, the equilibrium dissociation constant (Kd) in assay [2] is 0.543 nM and 0.521 nM.

B5: humanized E104.v2 IgG4 (antibody, V domains shown)
VH: EVQLVESGPGLVKPSETLSLTCTVSRFSLIGYAITWIRQPPGKGLEWIGGISSAATTFYSSWAKSRVTISRDTSKNQVSLKLSSVTAADTAVYYCARDPRGYGAALDRLDLWGQGTLVTVSS
VL: DIQMTQSPSSLSASVGDRVTITCQSIKSVYNNRLGWYQQKPGKAPKLLIYETSILTSGVPSRFSGSGSGTDFTLTISSLQPEDFATYYCAGGFDRSGDTTFGQGTKVEIK
notes: variable domain of the heavy chain as in m6 (PDB 6VVU, Fab heavy chain) with V71R and F78V (Kabat numbering); human IgG4 heavy chain constant region; upper hinge printed as ESKYGPP; as the light chain of m6 (PDB 6VVU, Fab light chain); IgG4 isotype version of E104.v2; source: 293 cells, transient transfection, purified (MabSelect SuRe, SEC); copies: 2 + 2
The molecule B5 returned a Kd in assay [1] of 0.7 ± 0.04 nM.

B6: E104.v2 IgG1 hinge variant G1 + G (antibody, V domains shown)
VH: EVQLVESGPGLVKPSETLSLTCTVSRFSLIGYAITWIRQPPGKGLEWIGGISSAATTFYSSWAKSRVTISRDTSKNQVSLKLSSVTAADTAVYYCARDPRGYGAALDRLDLWGQGTLVTVSS
VL: DIQMTQSPSSLSASVGDRVTITCQSIKSVYNNRLGWYQQKPGKAPKLLIYETSILTSGVPSRFSGSGSGTDFTLTISSLQPEDFATYYCAGGFDRSGDTTFGQGTKVEIK
notes: as for B3
In the case of B6, the Kd in assay [1] was 0.5 ± 0.01 nM.

B7: humanized E104.v2 IgG4 (antibody, V domains shown)
VH: EVQLVESGPGLVKPSETLSLTCTVSRFSLIGYAITWIRQPPGKGLEWIGGISSAATTFYSSWAKSRVTISRDTSKNQVSLKLSSVTAADTAVYYCARDPRGYGAALDRLDLWGQGTLVTVSS
VL: DIQMTQSPSSLSASVGDRVTITCQSIKSVYNNRLGWYQQKPGKAPKLLIYETSILTSGVPSRFSGSGSGTDFTLTISSLQPEDFATYYCAGGFDRSGDTTFGQGTKVEIK
notes: humanized E104.v2 VH: as the VH of Sm2 (E104.v1, PDB 6VVU heavy chain) with V71R and F78V (Kabat numbering); human IgG4 heavy chain constant region, the CH1 domain up to the upper hinge; upper hinge of human IgG4; human IgG4 heavy chain constant region after the upper hinge (core and lower hinge, CH2, CH3); IgG4 isotype version of E104.v2; copies: 2 + 2
Turning to B7, the Kd in assay [2] was 0.745 nM and 0.689 nM.

B8: E104.v2 IgG1 hinge variant G1 + (GGS)3 (antibody, V domains shown)
VH: EVQLVESGPGLVKPSETLSLTCTVSRFSLIGYAITWIRQPPGKGLEWIGGISSAATTFYSSWAKSRVTISRDTSKNQVSLKLSSVTAADTAVYYCARDPRGYGAALDRLDLWGQGTLVTVSS
VL: DIQMTQSPSSLSASVGDRVTITCQSIKSVYNNRLGWYQQKPGKAPKLLIYETSILTSGVPSRFSGSGSGTDFTLTISSLQPEDFATYYCAGGFDRSGDTTFGQGTKVEIK
notes: as for B3
Regarding B8, the Kd in assay [1] was 0.5 ± 0.1 nM.

B9: E104.v2 IgG1 hinge variant G1 + GG (antibody, V domains shown)
VH: EVQLVESGPGLVKPSETLSLTCTVSRFSLIGYAITWIRQPPGKGLEWIGGISSAATTFYSSWAKSRVTISRDTSKNQVSLKLSSVTAADTAVYYCARDPRGYGAALDRLDLWGQGTLVTVSS
VL: DIQMTQSPSSLSASVGDRVTITCQSIKSVYNNRLGWYQQKPGKAPKLLIYETSILTSGVPSRFSGSGSGTDFTLTISSLQPEDFATYYCAGGFDRSGDTTFGQGTKVEIK
notes: humanized E104.v2 VH: as the VH of Sm2 (E104.v1, PDB 6VVU heavy chain) with V71R and F78V (Kabat numbering); human IgG1 heavy chain constant region, the CH1 domain up to the upper hinge; human IgG1 heavy chain constant region after the upper hinge (core and lower hinge, CH2, CH3); IgG1 with extended upper hinge; copies: 2 + 2
Take B9: the Kd in assay [2] was 0.448 nM and 0.422 nM.

B10: E104.v2 IgG1 hinge variant G1.G5 (antibody, V domains shown)
VH: EVQLVESGPGLVKPSETLSLTCTVSRFSLIGYAITWIRQPPGKGLEWIGGISSAATTFYSSWAKSRVTISRDTSKNQVSLKLSSVTAADTAVYYCARDPRGYGAALDRLDLWGQGTLVTVSS
VL: DIQMTQSPSSLSASVGDRVTITCQSIKSVYNNRLGWYQQKPGKAPKLLIYETSILTSGVPSRFSGSGSGTDFTLTISSLQPEDFATYYCAGGFDRSGDTTFGQGTKVEIK
notes: variable domain of the heavy chain as in m6 (PDB 6VVU, Fab heavy chain) with V71R and F78V (Kabat numbering); human IgG1 heavy chain constant region before the upper hinge (CH1); upper hinge of the variant; human IgG1 heavy chain constant region after the upper hinge (core hinge from C226, CH2, CH3); as the light chain of m6 (PDB 6VVU, Fab light chain); IgG1 with five glycines in the upper hinge; …
In assay [1], B10 yielded a Kd of 0.6 ± 0.1 nM.
